What was measured:
[1] = target: T1, rVAR2 recombinant protein with a Strep-tag (prokaryotically expressed and purified) (Plasmodium falciparum); assay: Western blot, 5H4 as primary antibody
T1 construct: Expressed in E. coli, about 74 kDa; also called prokaryotically expressed and purified rVAR2 protein; strep-tagged rVAR2 recombinant protein
T1 chain: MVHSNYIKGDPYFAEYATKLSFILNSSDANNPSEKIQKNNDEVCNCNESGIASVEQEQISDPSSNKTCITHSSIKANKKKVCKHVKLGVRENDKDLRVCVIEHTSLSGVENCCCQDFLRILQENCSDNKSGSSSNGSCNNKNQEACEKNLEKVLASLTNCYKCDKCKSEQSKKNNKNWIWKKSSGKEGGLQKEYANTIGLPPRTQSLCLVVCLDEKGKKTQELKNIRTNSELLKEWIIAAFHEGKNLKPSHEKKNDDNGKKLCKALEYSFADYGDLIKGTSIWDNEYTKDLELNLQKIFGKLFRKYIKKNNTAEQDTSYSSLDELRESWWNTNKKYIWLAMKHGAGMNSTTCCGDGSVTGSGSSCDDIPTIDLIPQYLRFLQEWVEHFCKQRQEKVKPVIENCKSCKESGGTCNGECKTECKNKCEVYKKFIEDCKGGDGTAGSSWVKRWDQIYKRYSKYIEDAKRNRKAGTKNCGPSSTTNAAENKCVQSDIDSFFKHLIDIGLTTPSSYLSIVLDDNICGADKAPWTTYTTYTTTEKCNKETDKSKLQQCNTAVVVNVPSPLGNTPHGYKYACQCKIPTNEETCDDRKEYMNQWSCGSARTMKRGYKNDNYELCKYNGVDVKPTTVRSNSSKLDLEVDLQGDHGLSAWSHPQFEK

[2] = target: T2, rVAR2 recombinant protein with the 3xFLAG-tag (eukaryotically expressed and purified) (Plasmodium falciparum, Possible post-translational modification (runs at about 115 kDa against 76 kDa predicted); not carried by the letters.); assay: Western blot, 5H4 as primary antibody
T2 construct: Expressed in HEK293 or HEK293T cells; Predicted about 76 kDa, runs at about 115 kDa (possible post-translational modification); also called eukaryotically expressed and purified rVAR2 protein
T2 chain: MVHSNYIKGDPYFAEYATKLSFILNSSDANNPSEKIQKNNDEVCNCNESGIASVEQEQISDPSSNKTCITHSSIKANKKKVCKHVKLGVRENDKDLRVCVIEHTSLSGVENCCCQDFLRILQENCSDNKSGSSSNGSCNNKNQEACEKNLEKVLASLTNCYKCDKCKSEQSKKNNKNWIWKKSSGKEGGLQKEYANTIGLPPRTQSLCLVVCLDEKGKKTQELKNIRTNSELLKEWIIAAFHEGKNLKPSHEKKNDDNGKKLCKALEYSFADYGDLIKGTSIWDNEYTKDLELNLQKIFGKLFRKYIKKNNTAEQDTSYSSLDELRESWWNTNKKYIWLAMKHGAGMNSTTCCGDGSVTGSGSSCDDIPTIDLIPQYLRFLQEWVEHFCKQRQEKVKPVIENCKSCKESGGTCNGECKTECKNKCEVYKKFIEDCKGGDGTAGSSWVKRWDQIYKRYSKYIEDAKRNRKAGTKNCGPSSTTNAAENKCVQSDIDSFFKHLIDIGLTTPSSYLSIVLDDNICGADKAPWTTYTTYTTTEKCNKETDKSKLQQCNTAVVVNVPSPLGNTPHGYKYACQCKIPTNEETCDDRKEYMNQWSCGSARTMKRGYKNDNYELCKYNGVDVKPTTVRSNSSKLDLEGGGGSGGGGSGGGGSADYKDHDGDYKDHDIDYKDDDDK

[3] = target: T3, ID1 polypeptide with Strep-tag (Plasmodium falciparum); assay: antigen-specific ELISA, OD450
T3 construct: Expressed in E. coli, predicted 17 kDa; also called ID1 antigen peptide
T3 chain: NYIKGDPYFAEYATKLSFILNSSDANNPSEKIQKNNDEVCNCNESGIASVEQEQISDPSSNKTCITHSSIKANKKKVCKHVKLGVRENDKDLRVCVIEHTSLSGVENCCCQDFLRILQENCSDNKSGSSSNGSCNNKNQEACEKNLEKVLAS

[4] = target: T4, DBL2X polypeptide with Strep-tag (Plasmodium falciparum); assay: antigen-specific ELISA, OD450
T4 construct: Expressed in E. coli, predicted 40 kDa; also called DBL2X antigen peptide
T4 chain: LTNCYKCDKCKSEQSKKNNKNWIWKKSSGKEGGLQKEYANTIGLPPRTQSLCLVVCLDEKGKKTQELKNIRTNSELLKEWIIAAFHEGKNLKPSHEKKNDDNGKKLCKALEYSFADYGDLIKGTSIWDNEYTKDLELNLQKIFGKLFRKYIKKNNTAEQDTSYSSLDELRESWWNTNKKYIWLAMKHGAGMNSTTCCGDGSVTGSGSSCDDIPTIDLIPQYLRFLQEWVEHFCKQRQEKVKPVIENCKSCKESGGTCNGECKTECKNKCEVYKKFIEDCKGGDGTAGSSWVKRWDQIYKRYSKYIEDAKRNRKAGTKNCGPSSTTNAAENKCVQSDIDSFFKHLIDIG

[5] = target: T5, ID2a polypeptide with Strep-tag (Plasmodium falciparum); assay: antigen-specific ELISA, antigen coated at 1 µg/ml
T5 construct: Expressed in E. coli, predicted about 15 kDa; also called ID2a antigen peptide
T5 chain: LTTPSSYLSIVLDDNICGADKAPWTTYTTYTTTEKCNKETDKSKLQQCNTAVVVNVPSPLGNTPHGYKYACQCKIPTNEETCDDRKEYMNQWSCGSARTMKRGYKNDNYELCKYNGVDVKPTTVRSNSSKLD

B1: anti-rVAR2 monoclonal antibody 5H4 (antibody, V domains shown)
VH: EVKLVESGGGLVKPGGSLKLSCAASGFTFSNYAMSWVRQSPERRLEWVAEISITGRYTYYPDTVTGRFTISRDNAKNTLYLEMSSLRSEDTAMYYCTREGYDYAPSWFAYWGQGTLVTVSA
VL: DVVMTQTPLSLPVSLGDQASISCRSGQTLVHRNGITYLEWYLQKPGQSPKLLIYKVSNRFSGVPDRFSGSGSGTDFTLKISRVEAEDLGIYYCFQGSHVPRTFGGGTKLEIK
notes: Murine IgG from a mouse B cell hybridoma, purified from hybridoma supernatant; isotype and constant regions are not; also called murine monoclonal antibody 5H4
B1: binds [1]; binds [2]; no binding (tested: antigen coated at 1 µg/ml) [3]. B1: no binding (tested: antigen coated at 1 µg/ml) [4]; binds [5].

Source: patent US20210221880A1 (CAS LAMVAC GUANGZHOU BIOMEDICAL TECHNOLOGY, published 2021)
